From publication PMC5037138, “A Novel Class of Plant Type III Polyketide Synthase Involved in Orsellinic Acid Biosynthesis from Rhododendron dauricum” (Frontiers in Plant Science, 2016)

Assays:
Test in all cases: HPLC product quantification, Hanes-Woolf
Format in all cases: biochemical, Rhododendron dauricum
[1] = substrate: CC(C)(COP(=O)(O)OP(=O)(O)OC[C@H]1O[C@@H](n2cnc3c(N)ncnc32)[C@H](O)[C@@H]1OP(=O)(O)O)[C@@H](O)C(=O)NCCC(=O)NCCSC(=O)/C=C/c1ccc(O)cc1; details: naringenin formation, 200 uM malonyl-CoA, pH 7.0, 30 C
[2] = substrate: CC(=O)SCCNC(=O)CCNC(=O)[C@H](O)C(C)(C)COP(=O)(O)OP(=O)(O)OC[C@H]1O[C@@H](n2cnc3c(N)ncnc32)[C@H](O)[C@@H]1OP(=O)(O)O; details: orcinol formation (major product), 200 uM malonyl-CoA, 100 mM potassium phosphate pH 7.0, 30 C, no OAC
Description: (§1) HPLC product quantification, Hanes-Woolf on ORS (orcinol synthase)

[3] = substrate: CCCC(=O)SCCNC(=O)CCNC(=O)[C@H](O)C(C)(C)COP(=O)(O)OP(=O)(O)OC[C@H]1O[C@@H](n2cnc3c(N)ncnc32)[C@H](O)[C@@H]1OP(=O)(O)O; details: 4-hydroxy-6-propyl-2-pyrone formation, 200 uM malonyl-CoA, pH 7.0, 30 C
Description: as §1

[4] = substrate: CCCCCC(=O)SCCNC(=O)CCNC(=O)[C@H](O)C(C)(C)COP(=O)(O)OP(=O)(O)OC[C@H]1O[C@@H](n2cnc3c(N)ncnc32)[C@H](O)[C@@H]1OP(=O)(O)O; details: 4-hydroxy-6-pentyl-2-pyrone formation, 200 uM malonyl-CoA, pH 7.0, 30 C
Description: as §1

B1: CHS (R. dauricum chalcone synthase) (Rhododendron dauricum) (protein)
chain: MVTVEDVRKAQRAEGPATVMAIGTATPPNCVDQSTYPDFYFRITNSEHKAELKEKFQRMCDKSMIKKRYMYLTEEILKENPSVCEYMAPSLDARQDMVVVEVPKLGKEAATKAIKEWGQPKSKITHLVFCTTSGVDMPGADYQLTKLLGLRPSVKRLMMYQQGCFAGGTVLRLAKDLAENNKGARVLVVCSEITAVTFRGPSDTHLDSLVGQALFGDGAAAIIVGADPVPEVEKPLFELVSAAQTILPDSDGAIDGHLREVGLTFHLLKDVPGLISKNIEKALTEAFQPLGISDWNSIFWIAHPGGPAILDQVELKLSLKPEKLRATRHVLSEYGNMSSACVLFILDEMRRKSAEEGLKTTGEGLEWGVLFGFGPGLTVETVVLHSLCT
notes: full length, 389 residues (42,599 Da), N-terminal His6 tag kept (pQE80L), E. coli M15; ~45 kDa subunit; homodimer ~94 kDa
Q: Which results are given for B1?
A: Km [1]: 8.15 µM; kcat [1]: 0.0089 s⁻¹

B2: ORS (orcinol synthase) (Rhododendron dauricum) (protein)
chain: MALVNHRENVKGRAQILAIGTANPKNCFRQVDYPDYYFRVTKSDHLIDLKAKFKRMCEKSMIEKRYMHVNEEILEQNPSMNHGGEKMVSSLDVRLDMEIMEIPKLAAEAATKAMDEWGQPKSRITHLVFHSTLGTVMPGVDYELIKLLGLNPSVKRFMLYHLGCYGGGTVLRLAKDLAENNPGSRVLVLCCEMMPSGFHGPPSLQHAHLDILTGHAIFGDGAGAVIVGCVDPSGGTNGVVERGVRRYEQPLFEIHSAYQTVLPDSKDAVGGRLREAGLIYYLSKRLSNDVSGKIDECCLAEAFSAAIKDNFEDWNSLFWIVHPAGRPILDKLDAKLGLNKEKLRASRNVLRDYGNMWSSSVLFVLDEMRKGSIAQRKTTTGEGFEWGVLLGFGPGVTVETVVLRSVPTAKLK
notes: full length, 412 residues (45,707 Da), N-terminal His6 tag kept (pQE80L), E. coli M15; ~48 kDa subunit; homodimer ~101 kDa
Q: For B2, which Km [2] is on record?
A: 9.98 µM

Q: What about the kcat [2] of the same protein?
A: 0.0243 s⁻¹

Q: And the Km [3]?
A: 17.1 µM

Q: And the kcat [3]?
A: 0.00675 s⁻¹

Q: And the Km [4]?
A: 26.4 µM

Q: And the kcat [4]?
A: 0.00482 s⁻¹
